From publication PMC5131300, “Discovery and structural characterisation of new fold type IV-transaminases exemplify the diversity of this enzyme fold” (Scientific Reports, 2016)

Target: CpuTA1, fold type IV transaminase from Curtobacterium pusillum (Curtobacterium pusillum)
Test: crystal structure; CpuTA1 12 mg/mL with 5 mM PLP, co-crystallised with 10 mM 3-amino benzoic acid, 2.4 M sodium malonate pH 7.0, micro-seeding, 289 K; two chains in the asymmetric unit; interface analysed with PDBePISA

stoichiometry N: 2
Substance: CpuTA1, fold type IV transaminase from Curtobacterium pusillum (enzyme)
